In the data set the target is FVII-186, P08709.
Sequence of FVII-186, P08709 (P08709 whole entry, looked up): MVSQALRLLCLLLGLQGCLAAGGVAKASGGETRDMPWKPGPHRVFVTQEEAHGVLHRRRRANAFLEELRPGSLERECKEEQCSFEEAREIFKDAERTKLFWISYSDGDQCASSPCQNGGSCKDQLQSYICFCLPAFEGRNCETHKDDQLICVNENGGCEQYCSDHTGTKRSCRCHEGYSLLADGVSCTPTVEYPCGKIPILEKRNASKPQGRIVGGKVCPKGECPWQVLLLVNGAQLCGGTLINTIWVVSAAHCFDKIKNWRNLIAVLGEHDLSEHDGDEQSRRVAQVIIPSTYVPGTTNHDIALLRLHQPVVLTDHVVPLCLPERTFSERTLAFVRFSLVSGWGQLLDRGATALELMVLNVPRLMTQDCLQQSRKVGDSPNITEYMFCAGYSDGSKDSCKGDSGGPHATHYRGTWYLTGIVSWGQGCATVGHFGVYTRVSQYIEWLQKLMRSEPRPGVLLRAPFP

B1: SUMO protease (Invitrogen Cat. No. 12588-018) (protein)
chain: LVPELNEKDDDQVQKALASRENTQLMNRDNIEITVRDFKTLAPRRWLNDTIIEFFMKYIEKSTPNTVAFNSFFYTNLSERGYQGVRRWMKRKKTQIDKLDKIFTPINLNQSHWALGIIDLKKKTIGYVDSLSNGPNAMSFAILTDLQKYVMEESKHTIGEDFDLIHLDCPQQPNGYDCGIYVCMNTLYGSADAPLDFDYKDAIRMRRFIAHLILTDALK
For B1, the “cleavage of SUMO from FVII-186 (reducing SDS-PAGE)” value is listed as “showed almost complete conversion of FVII-186 to the desired FVIIHC”.
